Experimental findings from patent US20190367612A1 (Daiichi Sankyo, published 2019) are described below.

For orientation: Kd means the constant that tells how readily two partners part at equilibrium. Usually EC50 (read off the curve) stands for the concentration that produces a half-maximal response.

In assay [1] the target is T1, human GPRC5D amino-terminal peptide …(Biotin)-NH2, lacking an intramolecular disulfide bond (human, biotinylated carboxy terminus, C-terminal amide; no intramolecularly formed disulfide bond).
T1 construct: Sigma-Aldrich synthetic peptide; also called amino-terminal peptide of human GPRC5D (disulfide bond absent)
T1 peptide: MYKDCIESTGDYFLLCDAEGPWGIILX
The assay is described as follows: ELISA, immobilised biotinylated peptide. The text has this:
(§1) Epitopes bound by the obtained rat anti-GPRC5D antibodies (2A4, 2B1, and 7B4) were identified using a human GPRC5D amino-terminal peptide […](Biotin)-NH₂ (Sigma-Aldrich Corp.) (SEQ ID NO: 1 of the Sequence Listing; FIG. 2) having a biotinylated carboxy-terminal peptide and lacking an intramolecularly formed disulfide bond, and a human GPRC5D amino-terminal peptide […]-K(Biotin)-NH₂ (Peptide Institute, Inc.) (SEQ ID NO: 2 of the Sequence Listing; FIG. 3) having a lysine-containing biotinylated carboxy terminus and having an intramolecularly formed disulfide bond. Each peptide diluted with PBS was added to Nunc Immobilizer (Thermo Fisher Scientific Inc.), and the plate was left standing at room temperature for 1 hour. After washing three times with PBST, […] containing 1% BSA was added thereto, and the plate was left standing at room temperature for 1 hour. After washing three times with PBST, each rat anti-GPRC5D antibody (2A4, 2B1, and 7B4) prepared in Example 1)-7 and diluted to 0.1 ng/mL to 1 μg/mL with PBS was added thereto, and the plate was left standing at room temperature for 1 hour. After washing three times with PBST, Anti-Rat IgG, HRP-Linked Whole Ab Goat (GE Healthcare Bio-Sciences Corp.) diluted 500-fold with PBS was added thereto, and the plate was left standing at room temperature for 1 hour. After washing three times with PBST, SuperSignal™ ELISA Pico Chemiluminescent Substrate (Thermo Fisher Scientific Inc.) was added thereto, and the luminescence was measured using a plate reader (ENVISION; PerkinElmer, Inc.).
On the technique in general: In an ELISA, binding on a coated surface is turned into a signal by an enzyme label.

The target of assay [2] is T2, human GPRC5D amino-terminal peptide MYKDCIESTGDYFLLCDAEGPWGIILE-K(Biotin)-NH2, having an intramolecular … (human, C-terminal lysine carrying biotin, C-terminal amide; intramolecularly formed disulfide bond).
T2 construct: Peptide Institute synthetic peptide; also called amino-terminal peptide of biotinylated human GPRC5D (disulfide bond present)
T2 peptide: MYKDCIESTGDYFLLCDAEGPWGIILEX
The assay is described as follows: ELISA, immobilised biotinylated peptide.
From the text: as §1

The target of assay [3] is T3, human GPRC5D (human, UniProt Q9NZD1 1-345).
T3 construct: whole, on cells; also called hGPRC5D; G-protein coupled receptor family C group 5 member D
As to the kind of experiment: flow cytometry, KMS-34 cells. For orientation: In flow cytometry, cells or beads pass a laser one at a time.

Assay [4] concerns the target T3, human GPRC5D. As to the kind of experiment: flow cytometry, KHM-1B cells. The method, then:
Human multiple myeloma cell line KHM-1B cells (JCRB Cell Bank) expressing GPRC5D were adjusted to a concentration of 5×10⁶ cells/mL with PBS containing 5% FBS, inoculated in an amount of 100 μL/well to a 96-well U-bottomed microplate, and centrifuged to remove a supernatant. Each rat anti-GPRC5D antibody (2A4, 2B1, and 7B4) adjusted to 0.32 ng/mL to 10 μg/mL in Example 1)-7 was added thereto in an amount of 100 μL/well, and the plate was left standing at 4° C. for 1 hour. The cells were washed twice with PBS containing 5% FBS. Then, PE Goat Anti-Rat Ab (Becton, Dickinson and Company) diluted 100-fold with PBS containing 5% FBS was added thereto at a concentration of 100 μL/well, and the plate was left standing at 4° C. for 1 hour. The cells were washed twice with PBS containing 5% FBS and then resuspended in PBS containing 5% FBS, followed by detection using a flow cytometer (FACSCanto™ II; Becton, Dickinson and Company). The data was analyzed using Flowjo (Tree Star, Inc.). The PE fluorescence intensity of the cell fraction was plotted to a histogram, and the mean fluorescence intensity (MFI) was calculated.

For assay [5], the target named is T3, human GPRC5D. The assay is described as follows: flow cytometry on KHM-1B cells (human GPRC5D), culture supernatant, PE anti-human IgG Fc, rMFI over human IgG isotype control. The method, then:
Human multiple myeloma cell line KHM-1B cells expressing GPRC5D were adjusted to a concentration of 2×10⁶ cells/mL with PBS containing 5% FBS, inoculated in an amount of 100 μL/well to a 96-well U-bottomed microplate, and centrifuged to remove a supernatant. The culture supernatant of each humanized anti-GPRC5D antibody obtained in Example 8)-3-1 or Human IgG isotype control antibody (Calbiochem/Merck Millipore Corp.) adjusted to 14 ng/mL to 30 μg/mL was added thereto in an amount of 100 μL/well, and the plate was left standing at 4° C. for 1 hour. The cells were washed twice with PBS containing 5% FBS. Then, R-Phycoerythrin AffiniPure F(ab′)2 Fragment Goat Anti-Human IgG, Fcγ Fragment Specific (Jackson ImmunoResearch Laboratories, Inc.) diluted 100-fold with PBS containing 5% FBS was added thereto in an amount of 100 μL/well, and the plate was left standing at 4° C. for 1 hour. The cells were washed twice with PBS containing 5% FBS and then resuspended in PBS containing 5% FBS, followed by detection using a flow cytometer (FACSCanto™ II; Becton, Dickinson and Company). The data was analyzed using Flowjo (Tree Star, Inc.). The PE fluorescence intensity of the cell fraction was plotted to a histogram, and the mean fluorescence intensity (MFI) was calculated. The MFI value of the control antibody was subtracted from the MFI value of the GPRC5D antibody to calculate a relative value of MFI (rMFI).

The target in the next assay is T4, cynomolgus monkey GPRC5D (cynomolgus monkey).
T4 construct: whole, on cells; Stably expressed on KMS-11 cells (KMS-11_cGPRC5D); also called cGPRC5D
The assay is described as follows: flow cytometry on KMS-11_cGPRC5D cells (cynomolgus monkey GPRC5D), PE anti-human IgG Fc detection, rMFI = MFI minus isotype control [label at the foot of D00092].

The next assay concerns the target T5, human CD3 (human, UniProt P07766 23-207).
T5 construct: CD3 complex on human PBMC; also called human CD3 (PBMC); human CD3-expressing cells
The assay is described as follows: flow cytometry on human PBMC (dead and CD19-positive cells excluded), Penta-His Alexa Fluor 488 detection, rMFI = MFI minus sample without antibody. The method, then:
Commercially available human PBMC (Cellular Technology Limited) was adjusted to an appropriate concentration with PBS containing 5% FBS. LIVE/DEAD Fixable Near-IR Dead Cell Stain Kit (Thermo Fisher Scientific Inc.) and an anti-CD19 antibody (Beckman Coulter Inc.) were added to the cells, which were then left standing at 4° C. for 30 minutes. The cells were washed twice with PBS containing 5% FBS, then adjusted to a concentration of 1×10⁶ cells/mL with PBS containing 5% FBS, inoculated in an amount of 100 μL/well to a 96-well U-bottomed microplate, and centrifuged to remove a supernatant. Each anti-GPRC5D-anti-CD3 bispecific molecule (C2037-C3E7034 to C3022-C3E7036 prepared in Example 12) diluted with PBS containing 5% FBS were added thereto in an amount of 100 μL/well, and the plate was left standing at 4° C. for 60 minutes. The cells were washed twice with PBS containing 5% FBS. Then, Penta-His Alexa Fluor 488 (Qiagen N.V.) diluted with PBS containing 5% FBS was added thereto in an amount of 30 μL/well, and the plate was left standing at 4° C. for 30 minutes. […] The data was analyzed using Flowjo (Tree Star, Inc.). The mean fluorescence intensity (MFI) of Alexa Fluor 488 in a fraction free from dead cells and CD19-positive cells was calculated. […]

The next assay concerns the target T6, cynomolgus monkey CD3 (cynomolgus monkey, UniProt Q95LI5 22-198).
T6 construct: whole, on cells; CD3 complex on cynomolgus monkey PBMC; also called cynomolgus monkey CD3 (PBMC); cynomolgus monkey CD3-expressing cells
As to the kind of experiment: flow cytometry on cynomolgus monkey PBMC, Penta-His Alexa Fluor 488 detection, rMFI = MFI minus sample without antibody.

Assay [6] addresses T3, human GPRC5D. The assay is described as follows: flow cytometry on A4/Fuk cells (endogenous human GPRC5D), Penta-His Alexa Fluor 488 detection, rMFI = MFI minus sample without antibody. In outline:
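Live/dead-stained A4/Fuk lymphoma cells (1×10⁶ cells/mL) were incubated 60 min at 4° C with diluted anti-GPRC5D-anti-CD3 bispecifics in PBS/5% FBS. Binding was detected with Penta-His Alexa Fluor 488 (30 min, 4° C) by flow cytometry, gating out dead cells.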

T6 sequence (Q95LI5 22-198): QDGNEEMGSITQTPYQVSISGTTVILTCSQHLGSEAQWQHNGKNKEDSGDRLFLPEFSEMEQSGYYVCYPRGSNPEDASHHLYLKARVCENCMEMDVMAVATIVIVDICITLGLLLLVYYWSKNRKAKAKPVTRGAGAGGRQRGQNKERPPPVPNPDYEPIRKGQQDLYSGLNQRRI
T5 sequence (P07766 23-207 limits assumed): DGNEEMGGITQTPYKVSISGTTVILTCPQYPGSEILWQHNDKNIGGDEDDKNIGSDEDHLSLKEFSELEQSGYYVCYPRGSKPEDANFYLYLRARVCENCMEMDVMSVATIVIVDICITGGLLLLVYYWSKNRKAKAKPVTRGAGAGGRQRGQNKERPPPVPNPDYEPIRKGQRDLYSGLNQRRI

B1: rat anti-GPRC5D antibody 7B4 (antibody, V domains shown)
VH: EIHLQESGPGLVKPSQSLSLTCSVTGYTITSGYDWSWIRKFPGNKMEWMAYMSYRGSTNYNPSLKSRISITRDTSKNQFFLQLNSVTTEDTATYYCALTRTYWYNYYYVLDAWGQGASVTVSS
VL: DIQMTQSPSFLSASVGERVTLSCKASQNINKYLDWYQQKLGEPPKLLIYNTNNLHTGIPSRFSGSGSGTDYTLTISGLQPEDVATYFCLQRNSWYTFGAGTKLELK
notes: Rat IgG2b, kappa chain
Take B1: the binding result in assay [1] and in assay [2] was “no binding (tested: 0.1 ng/mL to 1 µg/mL)” in each case. For the same molecule, the Kd was 2.1 nM in the assay with human GPRC5D [3] and 1.3 nM in the assay with human GPRC5D [4]. In addition, the “MFI (max)” value was found to be 4470 with human GPRC5D [3] and 2490 in the assay with human GPRC5D [4].

B2: humanized anti-GPRC5D antibody h2B1_H1/L2 (antibody, human IgG1, kappa, V domains shown)
VH: QVQLVESGGGLVKPSQTLSLTCTFSGFSLNTYDMGVGWIRQPPGKGLEWIGNIWWDDDKYYNPSLKSRVTISVDTSKNQASLKLSSVTAADTAVYYCARIETVRVSRKGFAHWGQGTLVTVSS
VL: DTVMTQSPDSLAVSLGERATINCKASQSVGINVDWYQQKPGQPPKLLIYGASNRHTGVPDRFSGSGFGTDFTLTISSLQAEDVAVYYCLQHGSIPPTFGQGTKVEIKR
notes: Human IgG1 / kappa
Regarding B2, in the assay with human GPRC5D [5], the binding result is “binds”. Further, the “EC50 (read off the curve)” value with cynomolgus monkey GPRC5D is approximately 4 nM.

B3: anti-GPRC5D-anti-CD3 bispecific molecule C3022-C3E7034 (bispecific antibody)
scFv: GQVQLVQSGAEVKKPGASVKVSCKASGYTFTGYYMHWVRQAPGQGLEWMGRINPNSGGTNYAQKFQGRVTMTRDTSISTAYMELSGLRSDDTAVYYCASGSVRHPWGQGTLVTVSSGGGGSGGGGSGGGGSQPVLTQPPSASGTPGQRVTISCSGSRSNIGGNIVSWYQQFPGTAPRLLTYADNQRPSGVPDRFSGSKSGTSASLAISGLQSEDEADYYCAAWDDSLNGVVFGGGTKLTVLGGGGSEVQLVESGGGLVQPGGSLRLSCAASGVTFNYYGMSWIRQAPGKGLEWVASITNSGGRIYYPDSVKGRFTISRENTQKTLYLQMNSLRAEDTAVYYCTLDGRDGWVAYWGQGTLVTVSSGGGGSGGGGSGGGGSNFMLTQPHSVSESPGKTVTISCKRNTGNIGSNYVNWYQQHEGSSPTTIIYRDDKRPDGVSDRFSGSIDRSSKSASLTISNLKTEDEADYFCQSYSSGFIFGGGTKLTVLGAAAGAGGDYKDDDDKGAAAHHHHHH
notes: Tandem scFv
Turning to B3, the “EC50 (read off the curve)” value is approximately 0.3 nM with human CD3 and approximately 20 nM in the assay with cynomolgus monkey CD3. The binding result with human GPRC5D [6] is on record as “binds”.

B4: rat anti-GPRC5D antibody 2A4 (antibody, V domains shown)
VH: QVQLQQSGAELAKPGTSVKLSCKASGYTFTSYYIYWVKQRPGQGLEWIGYVYPGYGGTYYSDKFKGKATFTADTSSSTAYMLLGSLTPEDSAYYFCARRKGIIRGPGYFDYWGQGVMVTVSS
VL: DIQMTQSPASLSASLGETVSIECLASEGISNSLAWYQQKPGKSPQLLIYGASSLQDGVPSRFSGSGSGTQYSLKISGMQPEDEGLYYCQQGYKYPPTFGGGTKLELK
notes: Rat IgG2b, kappa chain
For the molecule B4, the binding result in [1] and in assay [2] was “no binding (tested: 0.1 ng/mL to 1 µg/mL)” in each case. For the same molecule, the Kd with human GPRC5D [3] worked out at 1.4 nM; with human GPRC5D [4], 0.5 nM. The “MFI (max)” value with human GPRC5D [3] was found to be 2060; with human GPRC5D [4], 1150.
